Key:
Assay in all cases: ELISA, antibody coated, OX40-ECD.His mutant supernatant; relative to silent alanine substitutions;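 further: captured OX40 mutant protein detected with HRP-labelled anti-His antibody, absorbance read-out, scaled to the mean signal of control mutants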
[1] = biological target: T1, human OX40-ECD.His A126G (human, UniProt P43489 29-214)
T1 construct: extracellular domain; not shown: C-terminal His-tag
T1 sequence (looked up): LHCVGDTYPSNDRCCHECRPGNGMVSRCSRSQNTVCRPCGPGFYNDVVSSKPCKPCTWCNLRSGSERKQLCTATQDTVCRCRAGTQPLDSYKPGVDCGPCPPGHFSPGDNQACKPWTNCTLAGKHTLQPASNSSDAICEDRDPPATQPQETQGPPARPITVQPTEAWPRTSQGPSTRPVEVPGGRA

[2] = biological target: T2, human OX40-ECD.His S162A (human, UniProt P43489 29-214)
T2 construct: extracellular domain; not shown: C-terminal His-tag
T2 sequence (looked up): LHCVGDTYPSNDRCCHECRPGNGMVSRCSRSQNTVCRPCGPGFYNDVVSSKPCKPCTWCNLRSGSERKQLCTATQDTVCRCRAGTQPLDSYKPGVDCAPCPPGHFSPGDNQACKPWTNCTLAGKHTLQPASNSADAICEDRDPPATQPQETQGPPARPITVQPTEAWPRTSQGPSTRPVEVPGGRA

[3] = biological target: T3, human OX40-ECD.His D34A (human, UniProt P43489 29-214)
T3 construct: extracellular domain; not shown: C-terminal His-tag
T3 sequence (looked up): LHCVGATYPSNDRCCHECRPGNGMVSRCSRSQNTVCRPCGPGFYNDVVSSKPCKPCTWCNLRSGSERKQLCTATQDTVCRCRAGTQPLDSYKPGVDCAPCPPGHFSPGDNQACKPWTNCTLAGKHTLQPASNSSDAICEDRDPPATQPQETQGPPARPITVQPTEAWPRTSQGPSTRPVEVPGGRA

[4] = biological target: T4, human OX40-ECD.His W144A (human, UniProt P43489 29-214)
T4 construct: extracellular domain; not shown: C-terminal His-tag
T4 sequence (looked up): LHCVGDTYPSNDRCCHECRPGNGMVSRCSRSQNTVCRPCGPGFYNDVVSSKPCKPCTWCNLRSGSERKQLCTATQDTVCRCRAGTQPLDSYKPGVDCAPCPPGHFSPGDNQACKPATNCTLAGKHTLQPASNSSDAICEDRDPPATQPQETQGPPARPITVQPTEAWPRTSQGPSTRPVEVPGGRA

[5] = biological target: T5, human OX40-ECD.His Q156A (human, UniProt P43489 29-214)
T5 construct: extracellular domain; not shown: C-terminal His-tag
T5 sequence (looked up): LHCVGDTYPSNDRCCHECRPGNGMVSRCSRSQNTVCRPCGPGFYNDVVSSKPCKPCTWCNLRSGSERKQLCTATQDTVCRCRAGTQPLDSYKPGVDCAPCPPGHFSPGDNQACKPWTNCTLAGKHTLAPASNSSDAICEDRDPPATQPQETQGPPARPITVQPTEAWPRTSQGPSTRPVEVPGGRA

[6] = biological target: T6, human OX40-ECD.His S91A (human, UniProt P43489 29-214)
T6 construct: extracellular domain; not shown: C-terminal His-tag
T6 sequence (looked up): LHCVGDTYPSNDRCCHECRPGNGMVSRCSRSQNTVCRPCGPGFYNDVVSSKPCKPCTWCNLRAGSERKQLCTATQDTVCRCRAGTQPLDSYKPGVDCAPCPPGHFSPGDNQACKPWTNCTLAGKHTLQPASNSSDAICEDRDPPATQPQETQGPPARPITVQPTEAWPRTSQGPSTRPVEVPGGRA

[7] = biological target: T7, human OX40-ECD.His R108A (human, UniProt P43489 29-214)
T7 construct: extracellular domain; not shown: C-terminal His-tag
T7 sequence (looked up): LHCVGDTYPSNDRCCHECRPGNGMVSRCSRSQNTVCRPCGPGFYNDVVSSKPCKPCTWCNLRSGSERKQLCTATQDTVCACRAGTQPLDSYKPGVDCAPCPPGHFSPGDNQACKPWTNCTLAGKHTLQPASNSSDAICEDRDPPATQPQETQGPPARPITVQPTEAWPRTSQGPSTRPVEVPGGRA

[8] = biological target: T8, human OX40-ECD.His P171A (human, UniProt P43489 29-214)
T8 construct: extracellular domain; not shown: C-terminal His-tag
T8 sequence (looked up): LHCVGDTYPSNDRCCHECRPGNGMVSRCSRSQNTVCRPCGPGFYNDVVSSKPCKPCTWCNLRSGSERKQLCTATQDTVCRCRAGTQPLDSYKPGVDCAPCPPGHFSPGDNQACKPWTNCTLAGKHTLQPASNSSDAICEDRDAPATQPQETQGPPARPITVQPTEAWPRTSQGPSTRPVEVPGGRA

[9] = biological target: T9, human OX40-ECD.His N160A (human, UniProt P43489 29-214)
T9 construct: extracellular domain; not shown: C-terminal His-tag
T9 sequence (looked up): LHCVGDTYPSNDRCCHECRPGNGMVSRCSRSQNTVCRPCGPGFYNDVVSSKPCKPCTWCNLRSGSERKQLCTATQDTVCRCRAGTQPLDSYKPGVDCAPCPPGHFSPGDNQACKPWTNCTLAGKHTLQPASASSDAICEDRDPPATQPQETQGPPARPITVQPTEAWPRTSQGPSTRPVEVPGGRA

[10] = biological target: T10, human OX40-ECD.His H132A (human, UniProt P43489 29-214)
T10 construct: extracellular domain; not shown: C-terminal His-tag
T10 sequence (looked up): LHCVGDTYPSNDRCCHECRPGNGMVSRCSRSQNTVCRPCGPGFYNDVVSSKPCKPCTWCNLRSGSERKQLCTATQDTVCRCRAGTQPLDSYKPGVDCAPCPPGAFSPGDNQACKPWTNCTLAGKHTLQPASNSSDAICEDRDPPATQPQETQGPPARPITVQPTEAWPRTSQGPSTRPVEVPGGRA

B1: 1.134.9-u1-IgG1L (antibody, V domains shown)
VH: QVQLQESGPGLVKPSGTLSLTCAVSGGSISSYNWWSWVRQPPGKGLEWIGEIYHGGNTNYNPSLKSRVTMSVDNSKNQFSLKLSSVTAADTAVYYCARAPGDWGGSPYFDFWGQGTLVTVSS
VL: SSELTQDPAVSVALGQTVRITCQGDNLRTYYASWYQQKPGQAPILLIYGRNKRPSGIPDRFSGSSSGNTASLTITGAQAEDEAAYYCNSRDSSGNPVVFGGGTKLTVL
notes: fully human IgG1, lambda
- Fold Change [1]: 0.954
- Fold Change [2]: 0.998
- Fold Change [3]: 0.991
- Fold Change [4]: 0.881
- Fold Change [5]: 0.97
- Fold Change [6]: 0.886
- Fold Change [7]: 0.981
- Fold Change [8]: 1.02
- Fold Change [9]: 0.992
- Fold Change [10]: 0.826

Source: US20210171647A1 (WUXI BIOLOGICS SHANGHAI, published 2021)
